± gives the uncertainty stated by the source.
Assay: amyloid nucleation score (Sup35N fusion, yeast selection) (log enrichment); library NNK3; higher = more nucleation; inactive = no reads after selection
Procedure, shortened: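 Peptides of 20 random codons, each fused to Sup35N, were expressed in psi-negative yeast. Cells were induced with 100 μM copper sulfate for 24 hours and grown 7 days at 30°C on medium lacking adenine and uracil, and plasmid inserts before and after selection were Illumina-sequenced. Nucleation scores are DiMSum log enrichments of output over input reads, centred on the mode score of non-aggregating sequences, and sequences under 100 input reads were excluded.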

Row | Substance | amyloid nucleation score
1 | KSLKTRYSPSVYFDFYLHYG | 1.07 ± 0.15
2 | NCRGPCFKSKCSLIPRYTFV | inactive
3 | LFDLVYRWTWNED | -0.592 ± 0.76
4 | FFADGARVYFANHVSKAFWF | 1.96 ± 0.083
5 | HEWATWRDVLQVTTFFVLHM | inactive
6 | FLYFTHARFHR | 1.79 ± 0.094
7 | IPQNNLSDWLKCQMILVKEY | inactive
8 | AVPNIL | inactive
9 | EDGLGSYFNKKVNATCLNLA | inactive
10 | CTTDRGVVLWVCRNG | inactive
11 | WEPYTCIYC | inactive
12 | WSCASSCFY | inactive
13 | LWAIMFRYSDIAKLTGWRVV | -0.069 ± 0.82
14 | YGMLFYIYYMPRIFQYAVNL | 1.56 ± 0.065
15 | KDVYCRGVGG | inactive
16 | ILFRGPKLCKNGHVL | inactive
17 | RRGSNTGCPNVQNFVITLWQ | inactive
18 | FTYAC | inactive
19 | REYRIFLVPCFSISDRGGSW | inactive
20 | RYADMSTMNAS | inactive
21 | ILKYCQTSLRGERPILLLDF | inactive
22 | QSTIEKHDMPDRLFIVAAGS | inactive
23 | DHNARSVCTSNHSMAKRMFG | inactive

Row | Substance | amyloid nucleation score
24 | GAFCSND | inactive
25 | MNLDVWSFMSMFNSFRVWVQ | inactive
26 | LANTSRTGIFMDSNTDSRN | inactive
27 | TISCTDNFCSFILIRDGLTH | 1.96 ± 0.059
28 | LSPARQLTLLGDKNPANNIL | inactive
29 | ALLESFIKKRSMFLNVNGGF | inactive
30 | QLSVYIYLLIQLVISRKRNT | inactive
31 | YLICDFTFYVRGGGGMSQMT | 0.655 ± 0.28
32 | DIFWYTASNYYIIYNAYYPA | 0.709 ± 0.14
33 | EMGEGIL | inactive
34 | YFGKAMHLLGYSFETGLDWS | inactive
35 | FTLLIYCYYLYYRCFCYVVR | inactive
36 | DDIYKEVDRWKNWYRRLKHT | inactive
37 | KRYAYAVVGGWVVGVRKHHG | inactive
38 | ELNWWHLLVICCVYYFMVLF | inactive
39 | ILPGL | inactive
40 | MPYVSKVYHYRYT | inactive
41 | TGNDGYCVCSVCYLRICVAN | inactive
42 | VGVSISLSRARWGQIAMEET | 1.05 ± 0.2
43 | ANIFGVNTFGESRKHSIARC | inactive
44 | SPPSQYSVDQIFHMSWLVYY | inactive
45 | MLQWVESLGGICITRSVLIL | inactive
46 | IGCEQDADNYNRSWWIWMKF | inactive

Row | Substance | amyloid nucleation score
47 | RYVIV | inactive
48 | DTVKKVYSYYMTLNYVEPLP | inactive
49 | MRTMISYMVRVVRTHTCFLD | inactive
50 | LLMFHCQMMSLGGYTSVSAR | inactive
51 | RFNMSFYQSYITSHCLVR | inactive
52 | WSFMLFSVSYYNQGEAVLPA | inactive
53 | QIVFIRPKNL | inactive
54 | GSRLHRFPNVKLDALFIYRW | inactive
55 | CGTSHVMFWHVPRGVLKRMY | inactive
56 | RCFVPINGK | inactive
57 | EVLGSLFYFGYTTGLFIPF | inactive
58 | SLCWSLNGFNLLISFDFRRN | 0.785 ± 0.14
59 | VYHFSGWCRHSCSSLQKSHD | inactive
60 | NFMYTWKRSMFYSNCKH | inactive
61 | DFSKVNDQTADSYMWCSVDS | inactive
62 | LKPLGDSADGRWQLLWNSAD | inactive
63 | TWAWPGRYYQWLQLQLGLNK | inactive
64 | CSYILVFSNSFFFHAHSTWV | inactive
65 | YNFGVMVWTSDF | 2 ± 0.073
66 | MMLFNSMWDIFCLMDGLH | inactive
67 | LRQQRHACAIMEVSG | inactive
68 | LSSCKLSYSKQLSRTVNQL | inactive
69 | DYDYTRFPVITV | inactive

Row | Substance | amyloid nucleation score
70 | SVGFRYHVLRKSKWCVYIVE | inactive
71 | RVTTMLSFVR | inactive
72 | TKIYVLLFTSLVLVDTVLFL | -0.002 ± 0.4
73 | SSCRETTLEFAMGGTTVHLQ | inactive
74 | CDEGSGWILFIRHLLLYWRG | inactive
75 | SNSMS | inactive
76 | GLTWFKSIKVYVECLFRLSN | inactive
77 | CERKQVYNDRRINS | inactive
78 | TCHIRKWSEGWLKYMDCRSP | inactive
79 | MIIPFLLLTMLITKSWLLIW | inactive
80 | FMFNRGAAFNHFTGHTCITY | inactive
81 | YIPIYRFVMIS | inactive
82 | WFTQERHSVPLLIWMGLRRQ | 2.03 ± 0.075
83 | MLSISFLYFATTVGVDVTLG | inactive
84 | LADLLLCDLRDCRRSAVGRM | inactive
85 | LLWKKRVEEDSWLHTGSERM | 0.904 ± 0.15
86 | YYGRNEVLYQSDNVRYSSSG | inactive
87 | MSLPSSSQAYSCRWTWPRPA | inactive
88 | VTFAARLTYKSILDILCMME | inactive
89 | IGLFNTNVWKCFDCDTPAMF | inactive
90 | SLLGSEGVSLIFLHYYWWSA | inactive
91 | EALGKSFLVKFKTIKYLRLA | inactive
92 | CQSLLSGRFTGKSFEIT | inactive

Row | Substance | amyloid nucleation score
93 | VHLSRWYVN | inactive
94 | FVCRNLTFPMGHQSIMSMWD | -0.117 ± 0.75
95 | VIKTTNNQ | 1.09 ± 0.11
96 | FIGSGSHEIGGHINGKALSS | 0.644 ± 0.19
97 | RVPIYVHKI | inactive
98 | TSILPRSGANVKQLLLVLFV | inactive
99 | LRIKMGIYAHDLCAVIMYTL | 0.515 ± 0.35
100 | SCFKDDCVGLLYYQSWSNDS | 0.501 ± 0.33
101 | MRISRAVHELWILNFVTKES | -0.52 ± 1.3
102 | IDVKMGSYFVYHDGLFIFRV | inactive
103 | AYINTRYGFFGNLVDDTKSS | inactive
104 | FKIKKVN | inactive
105 | RKLFKKTFYLAPRL | inactive
106 | VSLCIDRSMRCPRLVCVERG | inactive
107 | LSHPTPQSCRHFVFNLKLSA | inactive
108 | QNLDSMRGGIRSLLVIIRKS | inactive
109 | NMIFA | inactive
110 | NKHMGKQLAIAMAVRCAYSG | 0.326 ± 0.33
111 | LVDAVHLCSNVNYTFCTNAG | 1.3 ± 0.074
112 | NNQCKACSLWWQSSYPDKMF | inactive
113 | LNTCNVFKYFVSGKRFREVG | inactive
114 | HINTWRLFRVGIPYVCVSDG | inactive
115 | VNATDRSVSFLHKGPALDSN | inactive

Row | Substance | amyloid nucleation score
116 | RCLYTCPYADFSEPNSNLRQ | inactive
117 | VWMVCSPSGIRLANSFVVDI | inactive
118 | DFSYRENYVPIDGIRLTVFW | inactive
119 | FSSVGRDDYCNGLM | inactive
120 | NMGALIRSRQVEVSHKRVSG | inactive
121 | SMNFLLLISMCNLWPSYAAL | 1.36 ± 0.14
122 | CYNDRFFIVSIYRDQ | 1.07 ± 0.1
123 | VRPLRSVLFDVASNVIGSVG | inactive
124 | SMAMFIFMITLVCYFKDSPW | inactive
125 | LLVESMDGGRPILQDGLFKY | inactive
126 | IYVRLMSFH | 0.452 ± 0.15
127 | SGVYLNVIWNCDIGDING | 1.49 ± 0.12
128 | KRCPWVRNKSVSYLTSKYKL | inactive
129 | LEMGSGSHFSGDSWAHPLRG | inactive
130 | LRVRFTISWL | -0.471 ± 0.41
131 | RLGTM | inactive
132 | IFNLHWDTMLSIHMSIDALR | 1.91 ± 0.1
133 | RNLRVIGVTRDHGNF | inactive
134 | MGFASSLSWSL | inactive
135 | IIRCKMM | -0.538 ± 0.57
136 | LKLFLRVYCIDI | 0.535 ± 0.23
137 | YICCDIRTRALRIRIRCVLM | -0.411 ± 0.75
138 | FMSFYVLLSSTMVTQFAMGP | inactive

Row | Substance | amyloid nucleation score
139 | SVMYVQNFPYLLSYWRSFIG | inactive
140 | GWLRAMKSIVNLF | inactive
141 | SGMLDWDWVSRVSIGVCKVW | inactive
142 | DFGVGN | inactive
143 | VENRYVIINSRVMGD | inactive
144 | WIDFLSRLTIRGSDMYHQEY | 0.37 ± 0.29
145 | APSNGRE | inactive
146 | MKVNKLRTMPCNINWQFCLP | 0.819 ± 0.11
147 | GFKVVSSLDFSCG | 0.55 ± 0.31
148 | RIYSDGRSSFSRQLVWVCSR | inactive
149 | FMVCCICGKYGMMVSC | inactive
150 | YTSRFSSCLWESRSDEGRNM | inactive
151 | SRECLRKLDVSNSTRIK | -0.097 ± 0.24
152 | LTPSECMENYRGFSDMRRCP | inactive
153 | ISLLTVHTVSVTF | inactive
154 | LLTGFLSKVSGQS | inactive
155 | AVDLV | inactive
156 | IVFMRLRMRVICPLCSVRLS | 0.385 ± 0.2
157 | VCCSVSVAWKSWAHT | 1.28 ± 0.13
158 | FRSRRARGKNGIEMRILRHQ | -0.109 ± 0.69
